From IntAct's records for PubMed 19644450

B1: Isoform 2 of C-Jun-amino-terminal kinase-interacting protein 4 (Homo sapiens), O60271-2 (parent)
chain: MELEDGVVYQEEPGGSGAVMSERVSGLAGSIYREFERLIGRYDEEVVKELMPLVVAVLENLDSVFAQDQEHQVELELLRDDNEQLITQYEREKALRKHAEEKFIEFEDSQEQEKKDLQTRVESLESQTRQLELKAKNYADQISRLEEREAELKKEYNALHQRHTEMIHNYMEHLERTKLHQLSGSDQLESTAHSRIRKERPISLGIFPLPAGDGLLTPDAQKGGETPGSEQWKFQELSQPRSHTSLKDELSDVSQGGSKATTPASTANSDVATIPTDTPLKEENEGFVKVTDAPNKSEISKHIEVQVAQETRNVSTGSAENEEKSEVQAIIESTPELDMDKDLSGYKGSSTPTKGIENKAFDRNTESLFEELSSAGSGLIGDVDEGADLLGMGREVENLILENTQLLETKNALNIVKNDLIAKVDELTCEKDVLQGELEAVKQAKLKLEEKNRELEEELRKARAEAEDARQKAKDDDDSDIPTAQRKRFTRVEMARVLMERNQYKERLMELQEAVRWTEMIRASRENPAMQEKKRSSIWQFVPTRFSRLFSSSSNTTKKPEPPVNLKYNAPTSHVTPSVKKRSSTLSQLPGDKSKAFDFLSEETEASLASRREQKREQYRQVKAHVQKEDGRVQAFGWSLPQKYKQVTNGQGENKMKNLPVPVYLRPLDEKDTSMKLWCAVGVNLSGGKTRDGGSVVGASVFYKDVAGLDTEGSKQRSASQSSLDKLDQELKEQQKELKNQEELSSLVWICTSTHSATKVLIIDAVQPGNILDSFTVCNSHVLCIASVPGARETDYPAGEDLSESGQVDKASLCGSMTSNSSAETDSLLGGITVVGCSAEGVTGAATSPSTNGASPVMDKPPEMEAENSEVDENVPTAEEATEATEGNAGSAEDTVDISQTGVYTEHVFTDPLGVQIPEDLSPVYQSSNDSDAYKDQISVLPNEQDLVREEAQKMSSLLPTMWLGAQNGCLYVHSSVAQWRKCLHSIKLKDSILSIVHVKGIVLVALADGTLAIFHRGVDGQWDLSNYHLLDLGRPHHSIRCMTVVHDKVWCGYRNKIYVVQPKAMKIEKSFDAHPRKESQVRQLAWVGDGVWVSIRLDSTLRLYHAHTYQHLQDVDIEPYVSKMLGTGKLGFSFVRITALMVSCNRLWVGTGNGVIISIPLTETNKTSGVPGNRPGSVIRVYGDENSDKVTPGTFIPYCSMAHAQLCFHGHRDAVKFFVAVPGQVISPQSSSSGTDLTGDKAGPSAQEPGSQTPLKSMLVISGGEGYIDFRMGDEGGESELLGEDLPLEPSVTKAERSHLIVWQVMYGNE

Variants of: B1
Conditions: with arf6_human ARF6, P62330
arf6_human ARF6, P62330, sequence (P62330 whole entry): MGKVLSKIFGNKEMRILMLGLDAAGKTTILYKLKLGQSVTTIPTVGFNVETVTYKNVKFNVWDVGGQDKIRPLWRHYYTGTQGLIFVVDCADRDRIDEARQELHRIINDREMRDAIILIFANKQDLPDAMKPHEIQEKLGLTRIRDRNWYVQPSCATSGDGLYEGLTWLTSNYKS

effect of a mutation on the interaction	Variant
decreasing interaction	D425A

Variants of: B1
Conditions: with arf6_human ARF6, P62330
Remark: another data set of the same source

effect of a mutation on the interaction	Variant
decreasing interaction	I421A
